Results from paper doi:10.1101/2020.02.01.930172 (bioRxiv, 2020).

Target: GST-SIRT6 K33R (human, UniProt Q8N6T7 1-355, K33R)
Assay: pull-down

Chain of GST-SIRT6 K33R (Q8N6T7 whole entry K33R): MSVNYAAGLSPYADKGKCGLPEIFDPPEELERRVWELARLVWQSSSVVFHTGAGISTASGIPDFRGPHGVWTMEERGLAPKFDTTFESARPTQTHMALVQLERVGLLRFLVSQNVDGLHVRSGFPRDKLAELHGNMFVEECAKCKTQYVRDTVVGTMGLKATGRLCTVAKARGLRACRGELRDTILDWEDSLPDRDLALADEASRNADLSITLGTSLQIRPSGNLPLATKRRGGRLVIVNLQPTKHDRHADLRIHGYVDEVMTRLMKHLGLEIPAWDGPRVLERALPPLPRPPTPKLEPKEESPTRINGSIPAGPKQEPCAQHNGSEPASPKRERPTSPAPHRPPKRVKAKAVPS

binding result: binds
B1: biotin-labeled C-terminal γH2AX peptide (peptide)
peptide: GKKATQASQEY
